Marks after values point to notes of the source that are not given here.

This note sets out measurements from US9307782B2, “Mannanase produced from Cellulosimicrobium sp. strain HY-13” (Korea Research Institute of Bioscience and Biotechnology, priority 2011, dated 2016).

One data set concerns mannanase. In words: Effect of metal ions and chemicals on mannanase activity. The data set is classed as biochemical, Cellulosimicrobium sp. HY-13. Conditions: for increase of catalytic activity of the mannanase / effect on the enzyme activity: pH 6.0, 50° C.
The nature of data set [1]: Specific activity of mannanase (DNS reducing sugar assay). The data set is classed as biochemical. Conditions: pH 6.0, 50° C., 15 minutes. The protocol: To compare the mannanase activity to different matrixes, locust bean gum, ivory nut mannan and guar gum were used as matrixes and the activity of the purified mannanase to those matrixes were investigated.
The activity of β-1,4-mannanase was investigated by measuring the reduced amount of glucose isolated from locust bean gum using 3,5-dinitrosalicylic acid (DNS). At this time, D-mannose was used as a standard material. 0.5 Ml of a standard mixture composed of 0.5% locust bean gum was mixed with 0.05 Ml of an enzyme aqueous solution, followed by inducing biodegradation reaction in 50 mM sodium phosphate buffer (pH 6.0) at 50° C. for 15 minutes. The activity of the recombinated mannanase (1 IU) to the mannan substrate was defined as the amount of the protein necessary for the secretion of 1 μmol reducing sugar under the standard analysis condition. Chromogenic PNP-sugar derivative was used to measure another degrading activity of the said recombinated enzyme. The enzyme activity of the recombinated mannanase to the chromogenic substrate was measured under the same conditions as set for the analysis of β-1,4-mannanase activity. The activity of the recombinated mannanase (1 IU) to the PNP-sugar derivative was defined as the amount of the protein necessary for the production of 1 μmol PNP under the standard analysis condition.

Data set [2] is described as follows: Analysis of degradation product (HPLC, LC-MS/MS). In kind it is biochemical. The settings on record: 1 μg recombinant mannanase, pH 6.0, 30° C., 12 hours, LC area %. The protocol: Mannooligomer (M2˜M5, 1 mg/100 μl each) and locust bean gum (1.4 mg/100 μl) were reacted in 50 mM sodium phosphate buffer (pH 6.0) containing 1 μg of the recombinant mannanase at 30° C. for 12 hours, followed by investigation of the hydrolysate. HPLC (high performance liquid chromatography) was performed by using Finnigan Surveyor™ Modular HPLC systems (Thermo Electron Co.) equipped with Asahipak NH2P-50 2D column (5 μm, 2.0×150 mm, Shodex) ran by Xcalibur software (version 1.3 SP2, Thermo Electron Co.). Elution buffer A (0.05% pomalus acid/sterilized water) and elution buffer B (acetonitrile and methanol (7:3) containing 0.05% pomalus acid) were used as moving phases. LC-MS/MS (liquid chromatography/tandem mass spectrometry) was performed by using Finnigan LCQ Advantage MAX ion trap mass spectrometer (Thermo Electron Co.).

Data set [3] can be described thus: Analysis of degradation product (HPLC, LC-MS/MS). In kind it is biochemical. The settings on record: substrate Ivory nut mannan; LC area %. The protocol:
[…] HPLC (high performance liquid chromatography) was performed by using Finnigan Surveyor™ Modular HPLC systems (Thermo Electron Co.) equipped with Asahipak NH2P-50 2D column (5 μm, 2.0×150 mm, Shodex) ran by Xcalibur software (version 1.3 SP2, Thermo Electron Co.). Elution buffer A (0.05% pomalus acid/sterilized water) and elution buffer B (acetonitrile and methanol (7:3) containing 0.05% pomalus acid) were used as moving phases. LC-MS/MS (liquid chromatography/tandem mass spectrometry) was performed by using Finnigan LCQ Advantage MAX ion trap mass spectrometer (Thermo Electron Co.).

Where [4] appears, read: metal ions 1 mM, 50 mM sodium phosphate buffer (pH 6.0), 50° C., 10 minutes, None = 100.0.
[5] abbreviates: metal ions 1 mM, chemicals 5 mM, 10 minutes.
Where [6] appears, read: chemicals 5 mM, 50 mM sodium phosphate buffer (pH 6.0), 50° C., 10 minutes, None = 100.0.
Setting [7] is: detergent 0.5%, 50 mM sodium phosphate buffer (pH 6.0), 50° C., 10 minutes, None = 100.0.

As for `[Ba+2].[Cl-].[Cl-]` [BaCl2], in the data set with mannanase (setting [4]), the “Relative activity (%)” value is on record as 118.5%. For the same molecule, the “increase of catalytic activity of the mannanase” value (shortened to “increase”) with mannanase (metal ions 1 mM, 10 minutes) is recorded as “approximately 1.2 fold”.
With `[Ca+2].[Cl-].[Cl-]` [CaCl2], the “Relative activity (%)” value in the data set with mannanase (setting [4]) is 146.9%. In addition, in the data set with mannanase (metal ions 1 mM, 10 minutes), the “increase” value is on record as “at least 1.4 fold”.
For the molecule `[Cl-].[Cl-].[Co+2]` [CoCl2], the “Relative activity (%)” value in the data set with mannanase (pH 6) is reported as 111.9%.
For the molecule `[Cl][Cu][Cl]` [CuCl2], the “Relative activity (%)” value with mannanase (setting [4]) is 16.7%.
As to `O=C(O)CN(CCN(CC(=O)O)CC(=O)O)CC(=O)O` [EDTA], in the data set with mannanase (pH 6), the “Relative activity (%)” value was found to be 19.0%.
For the molecule `O=S(=O)([O-])[O-].[Fe+2]` [FeSO4], in the data set on mannanase (setting [4]), the “Relative activity (%)” value is given as 42.2%.
Consider `[Cl][Hg][Cl]` [HgCl2], for which the “effect on the enzyme activity” value in the data set with mannanase (setting [5]) is on record as “inactivated”. Also, the “Relative activity (%)” value with mannanase (setting [4]) is reported as 0%.
Taken in the same sequence, the figures for `O=S(=O)([O-])[O-].[Mg+2]` [MgSO4] were “no effect” and 99.9%.
`[Cl][Mn][Cl]` [MnCl2]: in the data set on mannanase (setting [4]), the “Relative activity (%)” value was found to be 125.2%. For the same molecule, the “increase” value in the data set with mannanase (metal ions 1 mM, 10 minutes) was “approximately 1.2 fold”.
Take `O=C1CCC(=O)N1Br` [N-Bromosuccinimide]: the “Relative activity (%)” value with mannanase (setting [6]) is reported as 0%. Moreover, the “effect on the enzyme activity” value with mannanase (setting [5]) is listed as “inactivated”.
In the case of `CCN1C(=O)C=CC1=O` [N-Ethylmaleimide], the “Relative activity (%)” value in the data set on mannanase (setting [6]) was determined as 121.4%.
On to `O=S(=O)([O-])[O-].[Ni+2]` [NiSO4], for which the “Relative activity (%)” value with mannanase (setting [4]) stood at 67.1%.
With `NC(=O)CI` [Odoacetamide], the “Relative activity (%)” value in the data set with mannanase (setting [6]) was 113.3%.
Consider `[Cl][Sn][Cl]` [SnCl2], for which the “effect on the enzyme activity” value in the data set on mannanase (setting [5]) is given as “no effect”. In addition, the “Relative activity (%)” value in the data set with mannanase (setting [4]) came out at 103.7%.
For the molecule `CCCCCCCC/C=C\CCCCCCCC(=O)OCCOCC(OCCO)C1OCC(OCCO)C1OCCO` (stereo not drawn) [Tween 80], in the data set on mannanase (setting [7]), the “Relative activity (%)” value stood at 103.5%.
For `O=S(=O)([O-])[O-].[Zn+2]` [ZnSO4], the “Relative activity (%)” value in the data set on mannanase (setting [4]) came to 47.4%.
As to Triton X-100, the “Relative activity (%)” value in the data set with mannanase (setting [7]) is recorded as 98.9%.

B1: rManH: Recombinant GH5 β-1,4-mannanase of Cellulosimicrobium sp. HY-13 produced in E. coli; SEQ. ID. NO: 1; approximately 44 kDa (protein)
chain: MRRLFAIVLGAVLALLAVPALAQGASVASDGFSVQDGRIYDANGNRFVPVGVNHAHAWYPSQTQSFADIRAAGANTVRVVLSGGRYGTSSAADVSAVVERCKQNQLVCILENHDTTGYGEDGSARSLASAAQYWTSIASVLRGQERYVMINIGNEPFGNSGFQSWTTDTIAAIRTLRAAGLDHTLVVDAPNWGQDWSFTMRDNAPTVAAADGNVVFSVHMYGVFDTGAEVRAYLDSFTSRGLPIMVGEFGDNHSDGNPDEATIMSYTRSQGIGMLGWSWSGNGGGVEYLDMVNGFSASSLTPWGQRFVHGADGLRARNAPAASVYGGDGGDGDGGAGTAPNGYPYCASASSDPDGDGWGWESSASCVVRGSSADTGSGGGSGSGSTAPNGYPYCASASSDPDGDGWGWESSASCVVRGSSADR
modifications: cellulosimicrobium
notes: Recombinant GH5 β-1,4-mannanase of Cellulosimicrobium sp; HY-13 produced in E. coli; ID; NO: 1; approximately 44 kDa
In the case of B1, the Specific activity in data set [1] (substrate Guar gum) is listed as 967 ± 18 IU mg^−1; in data set [1] (substrate Insoluble ivory nut mannan), 14,711 ± 183 IU mg^−1; in data set [1] (substrate Locust bean gum), 8,498 ± 105 IU mg^−1; in data set [1] (toward insoluble ivory nut mannan) it was 14,711^c IU/mg; in data set [1] (toward locust bean gum) it was 8,498^d IU/mg. In addition, the “Composition (%) of products formed by hydrolysis reaction: M1” value came out at 1.1% in data set [2] (substrate Locust bean gum); 3.5% in data set [2] (substrate M3); 3.9% in data set [2] (substrate M4); 4.1% in data set [2] (substrate M5); 3.3% in data set [3]. In addition, the “Composition (%) of products formed by hydrolysis reaction: M2” value in data set [2] (substrate Locust bean gum) is reported as 6.4%; in data set [2] (substrate M2), 100.0%; in data set [2] (substrate M3), 60.1%; in data set [2] (substrate M4) it was 55.5%; in data set [2] (substrate M5), 46.9%; in data set [3], 17.5%. The “Composition (%) of products formed by hydrolysis reaction: M3” value in data set [2] (substrate Locust bean gum) turned out to be 1.5%; in data set [2] (substrate M3), 31.6%; in data set [2] (substrate M4) it was 28.8%; in data set [2] (substrate M5), 21.8%; in data set [3], 13.9%. For the same molecule, the “Composition (%) of products formed by hydrolysis reaction: M4” value stood at 7.4% in data set [2] (substrate Locust bean gum); 4.0% in data set [2] (substrate M3); 9.9% in data set [2] (substrate M4); 16.6% in data set [2] (substrate M5); 25.2% in data set [3]. In addition, the “Composition (%) of products formed by hydrolysis reaction: M5” value in data set [2] (substrate Locust bean gum) amounted to 44.2%; in data set [2] (substrate M3), 0.8%; in data set [2] (substrate M4) it was 1.9%; in data set [2] (substrate M5), 7.9%; in data set [3], 19.7%. For the same molecule, the “Composition (%) of products formed by hydrolysis reaction: M6” value in data set [2] (substrate Locust bean gum) is given as 16.1%; in data set [2] (substrate M5) it was 2.8%; in data set [3], 12.9%. In addition, the “Composition (%) of products formed by hydrolysis reaction: M7” value is 21.4% in data set [2] (substrate Locust bean gum), 0.9% in data set [2] (substrate M5) and 7.5% in data set [3]. The “Composition (%) of products formed by hydrolysis reaction: M8” value in data set [2] (substrate Locust bean gum) was 1.9%; in data set [3], 2.9%.
